# Measurements taken from the supplement of paper PMC10567573.
# ± gives the standard deviation.
# Experiment: protein stability index of a GFP-peptide fusion (GPS, HEK-293T) (PSI 1-6); higher = more stable
# Conditions: c terminus: a fixed tail appended
# 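Note: 24-mer peptide tiles fused after GFP, lentivirally expressed, FACS-sorted into six equal bins by GFP/DsRed ratio, decoded by Illumina sequencing, PSI is the read-weighted mean bin number.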
Sequence,protein stability index (treatment: DMSO),"protein stability index (treatment: MLN4924 1 uM, 8 h)"
AAALLSNTTCQTENRLSVFFSVIF [PTGFR],2.43 ± 0.35,2.33 ± 0.18
AAAPVAEVPTAAGALTPTPAPTTT [CLPTM1],5.3 ± 0.34,5.25 ± 0.097
AACTRALESSEELLETANQTLQAM [FSD1],5.14 ± 0.16,4.84 ± 0.38
AAGELPTVECYNPRTNEWTYVAKM [KLHL13],3.11 ± 0.37,3.2 ± 0.42
AALRIANCKLFRLQLQQGLFRIRV [GAN],2.8 ± 0.57,2.58 ± 0.51
AARNACRAGTEPSDAIRVVNAVLT [TRIP13],3 ± 0.45,3.19 ± 0.33
AATQVFFALGLGFGGVIAFSSYNK [SLC6A17],2.64 ± 0.43,2.83 ± 0.67
ACRANVKSGAIMSALSDTEIQREI [PPFIA4],3.41 ± 0.29,3.57 ± 0.47
ADNMLEYKSWLKNLAKEQLSRENI [PPEF2],3.61 ± 0.27,3.75 ± 0.38
ADSGRYRASPTRTAPLPMPEGPEP [ELOA2],4.84 ± 0.32,4.96 ± 0.28
ADSSAQAAAQAPENFQEGKDMSES [TAF7L],5.72 ± 0.14,5.49 ± 0.39
AEGTPRSNHSAQDSAVENLLLLSK [IKZF1],4.67 ± 0.41,4.86 ± 0.95
AEKCLDFLVDMFNDEIEEVRLQSI [INTS4],2.94 ± 0.16,2.94 ± 0.4
AEKLKAQGEYSRKLEERFMTLAAN [CCDC89],3.4 ± 0.41,3.49 ± 0.45
AFGYFITACAVIILTIICYLGLPR [SLC29A1],2.3 ± 0.52,2.32 ± 0.41
AFHEPQVGLIQAAQQLLCDEQAPQ [DFFB],4.64 ± 0.18,4.92 ± 0.18
AFLGDAEIIELLILSGARVNAKDN [ANKRD44],2.45 ± 0.73,2.32 ± 0.23
AGALAQGGGPSATEWACILRRKTP [C6orf223],3.56 ± 0.17,3.75 ± 0.29
AGGQDMADSMLMQGSRGLTDQAIF [HDAC6],3.73 ± 0.054,3.86 ± 0.38
AGKLRLLREMCALSFQEELLYWGI [KCNG1],2.88 ± 0.5,2.34 ± 0.24
AGNKAALLDQIREGAQLKKVEQNS [WASL],–,5.24 ± 0.4
AGPGAAEPLPVERDPAAGAAPFRF [ZNF511],4.38 ± 0.17,4.64 ± 0.29

Sequence,protein stability index (treatment: DMSO),"protein stability index (treatment: MLN4924 1 uM, 8 h)"
AGSVFGGGFGGGVGGGFGGGFGGG [KRT15],2.56 ± 0.23,2.65 ± 0.21
AHEYIFCFVLGFFYPVMLILFLVI [SOAT2],2.98 ± 0.56,3.03 ± 0.23
AHIHLQQLTCFSITCSSTMSYSCC [KRT34],3.37 ± 0.64,2.95 ± 0.26
AHVGMELQLKQELAMLNAVTEDLR [SCARA5],3.27 ± 0.27,3.16 ± 0.45
AIDQYRVCQEVLERSRDVVDDVSV [RHOBTB2],4.66 ± 0.31,4.78 ± 0.13
AIELFHSYRETRRKEGIVKLKPHE [PTPN9],3 ± 0.2,3.25 ± 0.27
AIHQDPPDECGKTEFTRFLCSSPL [ATE1],3.78 ± 0.24,3.82 ± 0.17
AIIRERSSCVKILLDHNANIDIQN [ASB7],2.52 ± 0.4,2.64 ± 0.26
AKAEGFTASTKNCMVGYDMGATRC [CPXM2],3.42 ± 0.31,3.62 ± 0.1
AKDYADSIHAIFVETSAKNAININ [RAB22A],2.59 ± 0.27,2.48 ± 0.34
AKHMGLEPPPEVWQVLKTHPGDPR [POLD4],3.77 ± 0.25,3.93 ± 0.48
ALAAIYEEKEAWYREESDSLGQDL [DAPK3],–,4.6 ± 0.5
ALARKQAQEQLRPQTPEPVEGRKH [RSPH3],5.33 ± 0.18,5.31 ± 0.28
ALLFIPRRAPFDLFENKKKKNNIK [HSP90AB1],2.19 ± 0.27,–
ALRMATWNQILDPWVYILLRKAVL [PTGFR],2.98 ± 0.68,2.43 ± 0.41
ALSEILRIGKRPDLLTFVQNLCKG [NEUROD6],2.49 ± 0.46,2.29 ± 0.21
ALSLIRFPLMTIEEFAAGPAQSGI [BTBD1],2.09 ± 0.35,2.04 ± 0.13
ALWCSGHLNGHAMCQTKHSPWADG [ADAMTS4],2.48 ± 0.38,2.27 ± 0.47
AMAAAEGSSGPAGLTLGRSFSNYR [SEPHS2],3.82 ± 0.16,3.63 ± 0.23
AMKSVHENMDLNKIDDLMQEITEQ [CHMP4C],4.7 ± 0.16,4.85 ± 0.52
AMPPYGQGPPMVPPYQGGPPRPPM [ZNF207],3.79 ± 0.45,3.92 ± 0.2
ANYLEKVRQLERENAELESRIQEW [KRT36],4.27 ± 0.3,4.46 ± 0.16

Sequence,protein stability index (treatment: DMSO),"protein stability index (treatment: MLN4924 1 uM, 8 h)"
APAGASYNPSFEDHQTLLSAAHEV [NOP53],4.73 ± 0.14,4.71 ± 0.14
APFTDEQLYMEQFTKANFWYQPSF [CARM1],2.31 ± 0.42,2.21 ± 0.26
APHSQGEYDVYSTFQSHEPEFDYL [PPP2R2C],4.22 ± 0.19,4.13 ± 0.2
APKPDAAPSIDLFSTDAFSSPPQG [SNAP91],4.73 ± 0.14,4.84 ± 0.14
APLSNGLCCAFSTDGSVLAAGTHD [WSB1],4.06 ± 0.43,3.9 ± 0.24
APSEGSAEAAPELDLFAMKPPETS [SNAP91],5.39 ± 0.23,5.47 ± 0.19
APSFSSYLYFLFCPTLIYRETYPR [SOAT2],2.99 ± 0.17,2.7 ± 0.44
APSIEQRLQEVRESIRRAQVSQVK [FCHSD1],4.27 ± 0.39,4.35 ± 0.34
AQFHCAYQLADWCLHHICTNYNNV [RHOBTB2],3.34 ± 0.36,3.15 ± 0.89
AQLYEDFLFPIDISLVKREHDFLD [DLC1],2.52 ± 0.12,2.7 ± 0.28
AQTPPRPGPPSAPPPPPKEGHQEG [SCNN1D],5.73 ± 0.27,5.08 ± 0.72
AQYSVTGSAVARAVCKATTHEVMG [SNAP91],3.34 ± 0.088,3.23 ± 0.2
ARFQDKQYSSHHTAEKRKRLGELF [CHGB],3.58 ± 0.44,3.56 ± 0.11
ARGTGSGEDSSTSSSTPLEDEEPQ [RTN2],5.7 ± 0.15,5.62 ± 0.24
ARMGFNASSMLRKSQLGFLNVTNY [DCAF4],2.26 ± 0.13,2.24 ± 0.14
ARRKLKGAILTTMLATRNFSGGKS [CAMK2A],3.21 ± 0.37,3.34 ± 0.47
ARRYAGPLHHQTQRFRLDNLLNMA [ELAVL3],2.78 ± 0.35,2.75 ± 0.31
ARSVGLKWRKVGRSLQRGCRALRD [TRADD],2.57 ± 0.32,2.55 ± 0.46
ARTFGNEARFIRRSCTPNAEVRHE [KMT2E],3.2 ± 0.51,3.22 ± 0.26
ASLLHLAVEAGQEECAKWLLLNNA [RIPK4],2.17 ± 0.068,2.74 ± 0.13
ASMSKRRCGVGVSVLDDLLYAVGG [KLHL20],2.62 ± 0.14,2.13 ± 0.44
ASQPRGPALLFPATRGVPAKRLLD [TRIB1],3.72 ± 0.62,3.9 ± 0.36
